Tests used:
[1] = tested on: TβRII; assay: TβRII protein after HAPLN1 and/or HA in CD44-deficient human hair germinal matrix cells; assay type: cell-based; conditions: after CD44 siRNA; HAPLN1 25 ng/mL and/or HA 25 μg/mL; TGF-β2 2 ng/mL, 23 hours
Procedure: The human hair germinal matrix cells, which were made to be deficient in CD44 by using CD44 siRNA, were dispensed into a poly-D-lysine 6-well plate at a concentration of 5.0×10^4 per well and cultured for 24 hours. After 24 hours, the medium was removed and replaced with a low-serum medium. CD44 siRNA and scrambled siRNA were added at a concentration of 25 pmol per well and incubated for 24 hours. After the siRNA and the medium were all removed, the medium was replaced with a serum-free medium having HAPLN1 (25 ng/mL) or HA (25 μg/mL) added thereto, and cultured for 1 hour. TGF-β2 (2 ng/mL) was treated and incubated for 23 hours. After collecting cells, a lysis buffer (25 mM Tris-HCl, 1 mM EDTA, 0.1% Triton-X100, phosphatase inhibitor, and protease inhibitor) was added, and all the cells were broken through sonication. TβRII in the sample was measured using Western blotting. The optical density of TβRII was compared to that of GAPDH using a densitometer.

[2] = tested on: human hair germinal matrix cells; assay: Hair germinal matrix cell proliferating effect, CCK-8 (Example 13); assay type: cell-based; conditions: 25 ng/ml
Procedure: In the same manner as described above, HAPLN1 (25 ng/ml), CX3CL1 (25 ng/ml), CDON (25 ng/ml) or minoxidil (10 μM), and human recombinant TGF-β2 were diluted to a final concentration of 2 ng/ml, and the medium of the group containing TGF-β2 was replaced by 200 μl. To reduce an experimental variation, 3 wells per group were treated (triplication).
After incubation for 23 hours, the plate was removed from the incubator, and 20 μl of CCK-8 (WST-8) solution was added to the plate containing the medium and the reagent per 200 μl of the medium for the reaction to be carried out at 37° C. for 1 hour.
Human hair germinal matrix cells were released in a poly-D-lysine-coated flask using a mesenchymal stem cell medium (MSCM), and cultured in a 5% CO2 incubator at 37° C. When the cells were about 90% full, the cells were detached with a 0.05% Trypsin/EDTA solution, and then only the cells were recovered by centrifugation at 1000 rpm for 3 minutes. The recovered cells were dispensed into 96-well poly-D-lysine coated plates (BD bioscience) at 2.0×10^3 per well and cultured for 24 hours, and the final concentrations of HAPLN1, CX3CL1 and CDON were diluted to 25 ng/ml in a serum-free medium. The subsequent process was performed in the same manner as the experiment for the dermal papilla cells to measure the absorbance, and the results are shown in FIG. 22.

B1: hyaluronan and proteoglycan link protein 1 (protein, UniProt P10915 16-354, looked up)
Hyaluronan and proteoglycan …: DHLSDNYTLDHDRAIHIQAENGPHLLVEAEQAKVFSHRGGNVTLPCKFYRDPTAFGSGIHKIRIKWTKLTSDYLKEVDVFVSMGYHKKTYGGYQGRVFLKGGSDSDASLVITDLTLEDYGRYKCEVIEGLEDDTVVVALDLQGVVFPYFPRLGRYNLNFHEAQQACLDQDAVIASFDQLYDAWRGGLDWCNAGWLSDGSVQYPITKPREPCGGQNTVPGVRNYGFWDKDKSRYDVFCFTSNFNGRFYYLIHPTKLTYDEAVQACLNDGAQIAKVGQIFAAWKILGYDRCDAGWLADGSVRYPISRPRRRCSPTEAAVRFVGFPDKKHKLYGVYCFRAYN
notes: extracellular matrix protein found in cartilage; stabilizes aggregates of hyaluronic acid and proteoglycans
For B1, the “TβRII protein in CD44-deficient cells” value [1] was “not confirmed that TβRII was recovered”, the “hair germinal matrix cell proliferation (absorbance at 450 nm)” value ([2]; absence of TGF-β2) was “significant hair germinal matrix cell proliferating activity” and the “hair germinal matrix cell proliferation (absorbance at 450 nm)” value ([2]; presence of TGF-β2 (2 ng/ml)) was “particularly superior hair germinal matrix cell proliferating activity”.

From US20220202899A1, “COMPOSITION FOR PREVENTION OR TREATMENT OF HAIR LOSS INCLUDING HAPLN1” (HAPLNSCIENCE INC., priority 2019, published 2022)
